In general, EC50 (read off the curve) refers to the midpoint of the concentration-response curve. Higher therefore signals a less potent agent. By Kd is commonly meant the constant that tells how readily two partners part at equilibrium. A higher Kd goes with weaker binding. In general, koff refers to the first-order rate constant of dissociation. High values mean a short-lived complex, low ones a long-lived complex. By kon is commonly meant the rate constant with which the complex forms. Low readings indicate slow association, high ones fast association.

Assay [1] concerns the target T1, cynomolgus CD40 protein expressed on CHO-S cells (cynomolgus, UniProt G7PG38 21-278).
T1 construct: whole, on cells
Put plainly: flow cytometry on CHO-S cells transiently expressing cynomolgus CD40; AF647 anti-human IgG (H+L) secondary; GeoMean RL1-H. The method, then:
(§1) The anti-CD40 antibodies were incubated with hamster CHO-S cells transiently expressing human or cynomolgus CD40 for 30 minutes at 4° C. The cells were washed twice and subsequently incubated for an additional 20 minutes with AF647-conjugated secondary anti-human IgG (H+L) antibody. After the washing step, antibody binding was detected using the high-throughput flow cytometer iQue Screener PLUS (Sartorius) measuring the GeoMean of AF647 signal in each well. Every concentration was assayed in triplicate and a 12-point titration curve was generated for each antibody.
A general note: In flow cytometry, cells or beads pass a laser one at a time.

The target of assay [2] is T2, cynomolgus CD40 extracellular domain (ECD) (cynomolgus).
T2 construct: extracellular domain; also called Cynomolgus CD40 ECD
Put plainly: SPR (IBIS MX96), antibody captured, monovalent CD40 ECD in solution.

The target of assay [3] is T3, His-tagged human CD40 extracellular domain (ECD) (human, UniProt P25942 21-193).
T3 construct: Bought from Sino Biological; also called human CD40 ECD; CD40-his ECD antigen; not shown: His tag
T3 sequence (P25942 21-193): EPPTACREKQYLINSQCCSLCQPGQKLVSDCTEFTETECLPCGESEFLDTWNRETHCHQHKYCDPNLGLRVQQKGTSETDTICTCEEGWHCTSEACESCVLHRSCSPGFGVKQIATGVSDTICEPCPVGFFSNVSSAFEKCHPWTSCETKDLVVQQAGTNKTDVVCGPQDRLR
The description is as above.

Assay [4] deals with T4, human CD40 protein expressed on cells (human, UniProt P25942 21-277).
T4 construct: also called human CD40 on CHO-S cells; CD40 of CD40-NFkB-luciferase reporter cells (Promega CD40 Bioassay kit)
T4 sequence (P25942 21-277 limits assumed): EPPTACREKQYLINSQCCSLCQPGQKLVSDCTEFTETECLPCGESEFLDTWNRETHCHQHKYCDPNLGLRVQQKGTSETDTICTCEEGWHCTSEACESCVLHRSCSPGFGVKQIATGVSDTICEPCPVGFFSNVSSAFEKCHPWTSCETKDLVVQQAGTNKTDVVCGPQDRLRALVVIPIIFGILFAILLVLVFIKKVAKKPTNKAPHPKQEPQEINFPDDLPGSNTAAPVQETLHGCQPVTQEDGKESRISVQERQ
The assay is described as follows: flow cytometry on CHO-S cells transiently expressing human CD40; AF647 anti-human IgG (H+L) secondary; GeoMean RL1-H. The method, then: as §1

B1: antibody 15948 (antibody, human IgG1, kappa, L234A L235A, V domains shown)
VH: QVQLVESGGGVVQPGRSLRLSCAASGFTFSIYGMHWVRQAPGKGLEWVAVISYDGSNKYYADSVKGRFTISRDNSKNTLYLQMNSLRAEDTAVYYCAKDPDYYGSGSYYPDWGQGTLVTVSS
VL: DIQLTQSPSFLSASVGDRVTITCRASQGISSYLAWYQQKPGKAPKLLIYAASTLQSGVPSRFSGSGSGTEFTLTISSLQPEDFATYYCQQVKSYPLTFGGGTKVEIKR
notes: Fully human IgG1-LALA / kappa
On to B1, for which the 50% effective concentration (EC50 (read off the curve)) in assay [1] is roughly 0.4 µg/mL. In assay [2], this molecule had a Kd of 57 nM, a koff of 0.0021 s⁻¹ and a kon of 37000 M⁻¹ s⁻¹. In assay [3], this molecule yielded a Kd of 3.1 nM, a koff of 0.00031 s⁻¹ and a kon of 99000 M⁻¹ s⁻¹.

B2: antibody 16040 (antibody, human IgG1, kappa, L234A L235A, V domains shown)
VH: QVQLVESGGGVVQPGRSLRLSCAASGFTFSIYGMHWVRQAPGKGLEWVAVISYDGSNKYYADSVKGRFTISRDNSKNTLYLQMNSLRAEDTAVYYCAAGNWFDPWGQGTLVTVSS
VL: DIQLTQSPSFLSASVGDRVTITCRASQGISSYLAWYQQKPGKAPKLLIYAASTLQSGVPSRFSGSGSGTEFTLTISSLQPEDFATYYCQQLNRYPLTFGGGTKVEIKR
notes: Fully human IgG1-LALA / kappa
In assay [2], B2 displayed a Kd of 16 nM, a koff of 0.0013 s⁻¹ and a kon of 81000 M⁻¹ s⁻¹. In assay [3], this molecule came in with a Kd of 7 nM, a koff of 0.00036 s⁻¹ and a kon of 52000 M⁻¹ s⁻¹.

B3: antibody 15888 (antibody, human IgG1, kappa, L234A L235A, V domains shown)
VH: QVQLQQSGPGLVKPSQTLSLTCAISGDSVSSNSATWNWIRQSPSRGLEWLGRTYYRSKWYNDYAVSVKSRITINPDTSKNQFSLQLNSVTPEDTAVYYCARGGHSIAVAGPFDYWGQGTLVTVSS
VL: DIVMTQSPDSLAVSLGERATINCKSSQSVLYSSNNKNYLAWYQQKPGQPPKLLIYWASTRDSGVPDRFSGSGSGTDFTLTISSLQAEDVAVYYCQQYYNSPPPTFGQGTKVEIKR
notes: Fully human IgG1-LALA / kappa
Take B3: the “EC50 (read off the curve)” value in assay [1] was roughly 0.02 µg/mL. In assay [2], this molecule yielded a Kd of 0.44 nM, a koff of 0.00014 s⁻¹ and a kon of 330000 M⁻¹ s⁻¹. In assay [3], this molecule yielded a Kd of 0.75 nM, a koff of 0.00014 s⁻¹ and a kon of 190000 M⁻¹ s⁻¹.

B4: antibody 15833 (antibody, human IgG1, kappa, L234A L235A, V domains shown)
VH: QVQLVESGGGVVQPGRSLRLSCAASGFTFSNYAMHWVRQAPGKGLEWVALISFDGSYKYYADSVKGRFTISRDNSKNTLYLQMNSLRAEDTAVYYCVKDAGYSSSWFFDYWGQGTLVTVSS
VL: DIQMTQSPSSVSASVGDRVTITCRASQDISSWLAWYQQKPGKAPKLLIYAASSLQSGVPSRFSGSGSGTDFTLTISSLQPEDFGNYYCQQANSFPWTFGQGTKVEIKR
notes: Fully human IgG1-LALA / kappa
B4: the 50% effective concentration (EC50 (read off the curve)) in assay [1] is roughly 0.2 µg/mL. Further, the “EC50 (read off the curve)” value in assay [4] is roughly 0.1 µg/mL. In assay [2], this molecule returned a dissociation constant (Kd) of 1.5 nM, a koff of 0.00012 s⁻¹ and a kon of 80000 M⁻¹ s⁻¹. In assay [3], this molecule displayed a Kd of 2.8 nM, an off-rate (koff) of 0.00012 s⁻¹ and a kon of 41000 M⁻¹ s⁻¹.

B5: antibody 16154 (antibody, human IgG1, kappa, L234A L235A, V domains shown)
VH: EVQLVESGGGLVQPGGSLRLSCAASGFTFTSYWMSWVRQAPGKGLEWVANIKQDGSEKYYVDSVKGRFTISRDNAKNSLYLQMNSLRAEDTAVYYCARGPVAGPYWYFDLWGRGTLVTVSS
VL: AIQMTQSPSSLSASVGDRVTITCRASQGIRNDLGWYQQKPGKAPKLLIYAASSLQSGVPSRFSGSGSGTDFTLTISSLQPEDFATYYCLQDYHYPLTFGGGTKVEIKR
notes: Fully human IgG1-LALA / kappa
With B5, the “EC50 (read off the curve)” value in assay [1] and in assay [4] was roughly 0.008 µg/mL throughout. Also, the Kd came out at 4.6 nM in assay [2] and 5.7 nM in assay [3]. Further, the dissociation rate constant (koff) in assay [2] came out at 0.00051 s⁻¹; in assay [3], 0.00031 s⁻¹. Moreover, the association rate constant (kon) in assay [2] is 110000 M⁻¹ s⁻¹; in assay [3], 53000 M⁻¹ s⁻¹.

B6: antibody 17303 (antibody, human IgG1, kappa, L234A L235A, V domains shown)
VH: EVQLVESGGGLVQPGRSLRLSCAASGFTFDDHAMHWVRQAPGKGLEWVSGISWNSGSIGYAESVKGRFTISRDNAKNSLYLQMNSLRAEDTALYYCAKDRRGPFDYWGQGTLVTVSS
VL: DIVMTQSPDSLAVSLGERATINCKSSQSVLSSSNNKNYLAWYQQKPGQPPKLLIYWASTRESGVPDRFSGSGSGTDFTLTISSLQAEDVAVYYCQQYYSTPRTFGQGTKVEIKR
notes: Fully human IgG1-LALA / kappa
With B6, the “EC50 (read off the curve)” value in assay [1] was roughly 0.02 µg/mL. In assay [2], this molecule had a Kd of 9.8 nM, a koff of 0.0014 s⁻¹ and a kon of 150000 M⁻¹ s⁻¹. Besides, in assay [3], the Kd amounted to 7.8 nM, the koff came out at 0.00038 s⁻¹ and the kon came out at 49000 M⁻¹ s⁻¹.

The values above are taken from patent US20210214454A1 (SYMPHOGEN A S, published 2021).
